In EP4350345A2 one finds binding as % of Reference Sequence (=100%), % reduction and ECLU confirmatory assay data, which are given here for 5 molecules.

Assay [1] deals with purified interference factor(s) from serum of Donor A. The assay can be described thus: SPR, interference factor on CM5 chip.
Assay [2] concerns the target purified interference factor(s) from serum of Donor B. The assay can be described thus: SPR, interference factor on CM5 chip. A general note: SPR reads the build-up and loss of mass on a sensor chip optically.
The target of assay [3] is purified interference factor(s) from serum of Donor C. In words: SPR, interference factor on CM5 chip.
The target of assay [4] is monoclonal antibody 21-4-3. In words: SPR, 21-4-3 captured via anti-mouse IgG, 500 nM.
monoclonal antibody 21-4-3, sequence (VH, as listed by the source, chain 1 of 2): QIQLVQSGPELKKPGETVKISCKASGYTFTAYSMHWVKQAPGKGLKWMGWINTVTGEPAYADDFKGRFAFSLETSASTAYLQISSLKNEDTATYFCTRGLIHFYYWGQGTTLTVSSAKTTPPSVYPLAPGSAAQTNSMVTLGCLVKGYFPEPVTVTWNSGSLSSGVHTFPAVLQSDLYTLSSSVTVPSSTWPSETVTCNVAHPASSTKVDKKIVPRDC
monoclonal antibody 21-4-3, sequence (VL, as listed by the source, chain 2 of 2): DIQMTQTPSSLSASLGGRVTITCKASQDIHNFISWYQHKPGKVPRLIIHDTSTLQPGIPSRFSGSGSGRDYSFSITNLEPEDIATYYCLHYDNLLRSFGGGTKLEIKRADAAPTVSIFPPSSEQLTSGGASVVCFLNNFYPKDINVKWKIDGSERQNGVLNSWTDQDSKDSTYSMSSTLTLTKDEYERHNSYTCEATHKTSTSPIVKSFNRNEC
The target of assay [5] is antibodies against ISV in serum sample IHUS#B09032311A20. In words: ECL bridging assay, drug displacement; competitor of labelled ISV SEQ ID NO:1.
For assay [6], the target named is antibodies against ISV in serum sample IHUS#B09032311A3. The description is as above.
For assay [7], the target named is serum sample IHUS#B09032311A1. The description is as above.
The target of assay [8] is affinity purified antibody IHuP#002-001-ABL-08. In words: ECL bridging/competition assay, 10 ug/ml ISV with 400 ng/ml analytical antibody; competitor of labelled ISV.

B1: Nanobody or Nanobody construct of SEQ ID NO: 85 (VHH)
VHH: EVQLVESGGGSVQPGGSLRLSCAASRSIGRLDRMGWYRHRPGEPRELVATITGGSSINYGDSVKGRFTISIDNSKNTVYLQMNSLRPEDTAVYYCNFNKYVTSRDTWGQGTLVQVGG
For the molecule B1, the binding as % of Reference Sequence (=100%) is 46% in assay [1], 5% in assay [2], 42% in assay [3] and 32% in assay [4].

B2: Nanobody or Nanobody construct of SEQ ID NO: 89 (VHH)
VHH: EVQLVESGGGSVQAGGSLRLSCAASRSIGRLDRMGWYRHRPGEPRELVATITGGSSINYGDSVKGRFTISIDNSKNTVYLQMNSLRPEDTAVYYCNFNKYVTSRDTWGQGTLVQVGG
For B2, the binding as % of Reference Sequence (=100%) in assay [1] stood at 14%; in assay [2] it was 5%; in assay [3] it was 17%; in assay [4], 2%.

B3: Nanobody or Nanobody construct of SEQ ID NO: 87 (VHH)
VHH: EVQLVESGGGSVQPGGSLRLSCAASRSIGRLDRMGWYRHRPGEPRELVATITGGSSINYGDSVKGRFTISIDNSKNTVYLQMNSLRPEDTAVYYCNFNKYVTSRDTWGQGTLVTVGG
For the molecule B3, the binding as % of Reference Sequence (=100%) in assay [1] came to 51%; in assay [2], 5%; in assay [3] it was 39%; in assay [4] it was 41%.

B4: Example 1C: (A14P,R39Q,K83R,T91Y,Q108L) (VHH)
VHH: EVQLVESGGGLVQPGGSLRLSCAASGRTFNNYAMGWFRQAPGKEREFVAAITRSGVRSGVSAIYGDSVKDRFTISRDNAKNTLYLQMNSLRPEDTAVYYCAASAIGSGALRRFEYDYSGQGTLVTVSS
On to B4, for which the % reduction in assay [5] was determined as 97%; in assay [6], 90%; in assay [7], 6%; in assay [8], 91.4%. Further, the ECLU confirmatory assay worked out at 570 ECLU in assay [5], 228 ECLU in assay [6], 58 ECLU in assay [7] and 251 ECLU in assay [8].

B5: Example 1C: (A14P,K83R,Q108L) (VHH)
VHH: EVQLVESGGGLVQPGGSLRLSCAASGRTFNNYAMGWFRRAPGKEREFVAAITRSGVRSGVSAIYGDSVKDRFTISRDNAKNTLYLQMNSLRPEDTAVYTCAASAIGSGALRRFEYDYSGQGTLVTVSS
As for B5, the % reduction in assay [5] came to 97%; in assay [6], 93%; in assay [7], 8%; in assay [8], 89.1%. Further, the ECLU confirmatory assay in assay [5] is 628 ECLU; in assay [6], 156 ECLU; in assay [7] it was 57 ECLU; in assay [8], 319 ECLU.
